According to paper PMC8519905, “Reproducibility and accuracy of microscale thermophoresis in the NanoTemper Monolith: a multi laboratory benchmark study” (European Biophysics Journal, 2021):
“And” between values parts separate entries of the source, which are not always exact repeats. Identical values can stand only once.

Assays:
[1] = biological target: T1, unlabeled lysozyme (Gallus gallus, UniProt P00698); assay: label-free microscale thermophoresis (NT.LabelFree); format: binding; conditions: unlabelled protein; buffer not printed in main text for this test
T1 construct: gene LYZ; native hen egg white lysozyme (mature chain, signal peptide removed), unlabelled; source printed for the stock used for labelling

[2] = biological target: T2, Lysozyme isolated from hen egg white, labeled with RED-NHS 2nd generation dye (Gallus gallus (hen egg white), UniProt P00698, RED-NHS 2nd generation dye, amine reactive; degree of labeling ~0.70); assay: MST; TRIC analysis of the MST/TRIC time trace; RED-NHS labeled lysozyme as target, nanobody as titrated ligand; PBS+ (10 mM phosphate pH 7.4, 2.7 mM KCl, 137 mM NaCl, 0.005% Tween-20); premium coated capillaries; triplicates on 40 Monolith NT.115/NT.Pico instruments; means over instruments; analysed centrally with MOAA and PALMIST (hot region 0.5-1.5 s) and individually by users; fitted without correction for the …; conditions: both partners purified
T2 construct: lysozyme isolated from hen egg white (ROCHE Cat.No. 10837059001); also called labeled lysozyme; red labeled lysozyme; source: bought: ROCHE Cat.No. 10837059001 (isolated from hen egg white); labeled with the Monolith NT Protein Labeling Kit RED-NHS 2nd Generation

[3] = biological target: T2, Lysozyme isolated from hen egg white, …; assay: other fluorescence titration; analysis of the absolute (initial) fluorescence of the same Monolith datasets; RED-NHS labeled lysozyme as target, nanobody as titrated ligand; PBS+; triplicates on 40 instruments; means over instruments; analysed centrally with MOAA and PALMIST and by 8 of 40 users; conditions: both partners purified
[4] = biological target: T2, Lysozyme isolated from hen egg white, …; assay: MST; TRIC analysis of the MST/TRIC time trace; RED-NHS labeled lysozyme as target, nanobody as titrated ligand; PBS+ (10 mM phosphate pH 7.4, 2.7 mM KCl, 137 mM NaCl, 0.005% Tween-20); premium coated capillaries; triplicates on 40 Monolith NT.115/NT.Pico instruments; means over instruments; analysed centrally with MOAA and PALMIST (hot region 0.5-1.5 s) and individually by users; fitted without correction for the …; conditions: both partners purified; remark: listed apart in the source

T2 sequence (P00698 19-147): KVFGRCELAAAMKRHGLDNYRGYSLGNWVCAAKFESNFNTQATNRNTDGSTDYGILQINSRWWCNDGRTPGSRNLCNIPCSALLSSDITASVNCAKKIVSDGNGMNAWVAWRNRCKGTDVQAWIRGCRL
T1 sequence (P00698 19-147): as above

Row | Kd [1] | Kd [2] | Kd [3] | Kd [4] | Molecule
1 | ~4000 nM |  |  |  | CC(=O)N[C@H]1[C@H](O[C@H]2[C@H](O)[C@@H](NC(C)=O)C(O)O[C@@H]2CO)O[C@H](CO)[C@@H](O[C@@H]2O[C@H](CO)[C@@H](O)[C@H](O)[C@H]2NC(C)=O)[C@@H]1O (stereo partly shown) [NAG3]
2 |  | 1170 nM | 256 nM and 259 nM and 272 nM | 111 nM and 119 nM and 76 nM | anti-lysozyme nanobody: Cab-Lys3 with T101 of the CDR3 loop mutated to serine (VHH, parent chain is the VHH Cab-Lys3 (De Genst et al. 2002), with T101 in the CDR3 loop changed to serine; 14.2 kDa; also called NB; VHH; source: T7-Express E. coli (pET-22B), purified (Profinity IMAC, Superdex-75)) VHH: DVQLQASGGGSVQAGGSLRLSCAASGYTIGPYCMGWFRQAPGKEREGVAAINMGGGITYYADSVKGRFTISQDNAKNTVYLLMNSLEPEDTAIYYCAADSSIYASYYECGHGLSTGGYGYDSWGQGTQVTVSS
